Bridge positions count the residues as written; N and C are the ends. Square brackets hold non-standard residues; d marks the D form. Ends that are not written are not given here.
Legend:
[1] = biological target: T1, Recombinant Rat MuSK Fc Chimera Protein (catalog number: 9847-MK-050, R&D Systems) (rat, UniProt Q62838 22-494); assay: SPR (Biacore T200), Fc-tagged rat MuSK on Protein G/A chip, 1:1 fit
T1 construct: Bought reagent; also called Fc-tagged rat MuSK; not shown: Fc protein of the bought chimera
T1 sequence (looked up): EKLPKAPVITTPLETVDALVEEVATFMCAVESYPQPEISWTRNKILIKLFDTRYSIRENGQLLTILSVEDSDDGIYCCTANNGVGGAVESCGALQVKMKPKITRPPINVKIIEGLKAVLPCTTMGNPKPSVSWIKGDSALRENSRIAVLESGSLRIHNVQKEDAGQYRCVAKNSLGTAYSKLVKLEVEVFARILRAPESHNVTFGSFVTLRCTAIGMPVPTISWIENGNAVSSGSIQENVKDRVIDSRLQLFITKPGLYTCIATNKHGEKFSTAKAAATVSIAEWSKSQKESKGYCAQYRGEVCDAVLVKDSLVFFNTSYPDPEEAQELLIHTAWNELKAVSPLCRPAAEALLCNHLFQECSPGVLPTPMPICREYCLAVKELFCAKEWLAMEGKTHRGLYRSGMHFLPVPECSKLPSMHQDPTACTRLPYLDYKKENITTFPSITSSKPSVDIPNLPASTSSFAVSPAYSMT

[2] = biological target: Fc-tagged mouse MuSK extracellular domain (mouse); assay: SPR (Biacore T200), Fc-tagged mouse MuSK on Protein G/A chip, 1:1 fit
Sequence of Fc-tagged mouse MuSK extracellular domain (mouse) (chain, as listed by the source limits assumed): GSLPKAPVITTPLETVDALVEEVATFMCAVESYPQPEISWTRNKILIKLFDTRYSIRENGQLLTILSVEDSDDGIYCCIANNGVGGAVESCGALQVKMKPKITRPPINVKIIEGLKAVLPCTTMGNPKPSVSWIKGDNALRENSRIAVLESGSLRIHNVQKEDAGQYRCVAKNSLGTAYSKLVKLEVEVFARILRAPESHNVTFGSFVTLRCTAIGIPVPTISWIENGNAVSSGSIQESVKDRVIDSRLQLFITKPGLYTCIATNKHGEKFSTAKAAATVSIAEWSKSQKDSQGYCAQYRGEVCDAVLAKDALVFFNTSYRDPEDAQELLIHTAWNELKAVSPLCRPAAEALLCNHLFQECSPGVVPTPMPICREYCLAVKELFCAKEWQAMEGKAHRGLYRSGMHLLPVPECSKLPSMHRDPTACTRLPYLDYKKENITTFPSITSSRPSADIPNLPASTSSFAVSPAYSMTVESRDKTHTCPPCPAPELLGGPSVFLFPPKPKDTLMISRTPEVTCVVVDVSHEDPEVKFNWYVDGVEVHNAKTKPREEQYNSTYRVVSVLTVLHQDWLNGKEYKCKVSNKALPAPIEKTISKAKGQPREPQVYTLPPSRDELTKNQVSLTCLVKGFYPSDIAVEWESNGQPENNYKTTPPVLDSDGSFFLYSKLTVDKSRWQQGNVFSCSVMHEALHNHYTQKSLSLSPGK

B1: Homodimer of MuSK7 with an introduced palmitoyl group (MuSK7-pal) (peptide)
peptide: {CH2CO}-[dY]PSYHTNVVASLKRC
modifications: thioether N-15; also: homodimer: two peptides condensed via C-terminal Cys carboxyl with linking unit bearing palmitic acid
notes: also called Dimeric peptide
[1]
  Kd: 2 nM
[2]
  Kd: 8.8 nM
